The results in this text go back to patent publication US20260234247A1 (published 2026).

For test [1], the target named is T1, human LILRB1 on CHOK1 cells (human, UniProt Q8NHL6 24-650).
T1 construct: whole, on cells; also called CHOK1-hLILRB1; CHOK1-LILRB1
In words: cell-based RBA (FACS): blocking of HLA-G binding to CHOK1-hLILRB1 cells.

For test [2], the target named is T1, human LILRB1 on CHOK1 cells. Briefly: FACS binding, CHOK1-hLILRB1 cells. On the technique in general: A flow cytometer gives signals particle by particle.
Test [3] concerns the target T2, human LILRB2 on CHOK1 cells (human, UniProt Q8N423 22-597).
T2 construct: whole, on cells; also called CHOK1-hLILRB2; CHOK1-LILRB2
Briefly: FACS binding, CHOK1-hLILRB2 cells.

T1 sequence (Q8NHL6 24-650): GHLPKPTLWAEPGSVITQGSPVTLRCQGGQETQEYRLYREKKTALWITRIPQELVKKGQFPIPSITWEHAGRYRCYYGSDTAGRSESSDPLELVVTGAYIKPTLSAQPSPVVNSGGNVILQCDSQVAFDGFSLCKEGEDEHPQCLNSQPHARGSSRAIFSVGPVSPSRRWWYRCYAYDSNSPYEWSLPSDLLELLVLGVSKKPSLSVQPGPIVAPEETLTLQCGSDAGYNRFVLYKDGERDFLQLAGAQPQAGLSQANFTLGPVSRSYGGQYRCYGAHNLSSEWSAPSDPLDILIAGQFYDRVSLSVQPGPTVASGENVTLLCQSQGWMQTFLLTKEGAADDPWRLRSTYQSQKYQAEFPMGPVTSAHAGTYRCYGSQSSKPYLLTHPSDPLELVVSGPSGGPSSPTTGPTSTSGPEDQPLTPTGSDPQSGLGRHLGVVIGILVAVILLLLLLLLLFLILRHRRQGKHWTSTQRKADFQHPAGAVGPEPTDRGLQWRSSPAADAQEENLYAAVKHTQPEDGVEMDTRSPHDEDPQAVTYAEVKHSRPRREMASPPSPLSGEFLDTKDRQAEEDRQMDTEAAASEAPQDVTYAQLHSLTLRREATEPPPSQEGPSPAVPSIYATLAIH
T2 sequence (Q8N423 22-597): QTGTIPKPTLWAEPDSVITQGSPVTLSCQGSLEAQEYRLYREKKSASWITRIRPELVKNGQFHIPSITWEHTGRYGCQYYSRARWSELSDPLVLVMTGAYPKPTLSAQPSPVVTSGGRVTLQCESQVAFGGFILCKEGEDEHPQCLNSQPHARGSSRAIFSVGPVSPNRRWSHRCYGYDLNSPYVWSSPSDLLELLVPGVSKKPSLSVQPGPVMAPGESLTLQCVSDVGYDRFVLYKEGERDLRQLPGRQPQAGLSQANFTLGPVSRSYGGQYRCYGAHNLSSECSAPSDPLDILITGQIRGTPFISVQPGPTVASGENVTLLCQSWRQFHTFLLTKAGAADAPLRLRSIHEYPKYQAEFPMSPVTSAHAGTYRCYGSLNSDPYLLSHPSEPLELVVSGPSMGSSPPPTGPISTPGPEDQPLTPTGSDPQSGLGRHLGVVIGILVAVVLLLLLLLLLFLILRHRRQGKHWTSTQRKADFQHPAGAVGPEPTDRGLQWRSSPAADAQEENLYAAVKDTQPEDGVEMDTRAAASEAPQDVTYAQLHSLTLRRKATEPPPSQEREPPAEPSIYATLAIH

B1: LK-RB1-2 (antibody, human IgG4 S228P, kappa, V domains shown)
VH: QIQLVQSGPELKKPGETVKISCKASGYTFTTYGVSWVKQAPGKGLKWMGWINTYSGVSTYSDDFKGRFAFSLETSASTAYLQIINLKNEDAATYFCSRRRRTYDGYLSFDYWGQGTTLTVSS
VL: DIQMTQSPGSLSASVGETVTITCGASENIYGALNWFQRKPGKSPQLLIYGATNLADGMSSRFSGSGSGRQYSLQISSLRPDDVATYYCQNVLTTPWTFGGGTKVEIKR
For orientation: EC50 means the concentration needed to bring the measured effect to its halfway point. Turning to B1, in test [1], the EC50 was found to be 0.44 nM and the “Top Inhibition (%)” value worked out at 81.9%. In test [2], this molecule had an EC50 of 0.28 nM. Besides, the binding result in test [3] is “no binding”.

B2: LK-RB1-9 (antibody, human IgG4 S228P, kappa, V domains shown)
VH: QIQLVQSGPELKKPGETVKISCTASGYTFTTYGMSWVKQAPGKGLKWMGWINTYSGVPTYADDFKGRFAFSLETSASTAYLEINNVKNEDTATYFCARRRRTYHGYLCFDYWGQGTTLTVSS
VL: DIQMTQSPVSLSASVGETVTITCETSENIYGALNWYQRKQGKSPQLLIYGATNLADGMSSRFSGSGSGRQYSLEISSLHPDDVASYYCQNVLNTPWTFGGGTKLEIKR
Turning to B2, in test [1], the response was half-maximal at 0.78 nM (EC50) and the “Top Inhibition (%)” value came to 88.1%. The same molecule yielded an EC50 in test [2] of 0.34 nM. For the same molecule, the binding result in test [3] is “no binding”.

B3: LK-RB1-8 (antibody, human IgG4 S228P, kappa, V domains shown)
VH: QVQLQQSGAELVRPGTSVKVSCKASGYAFSNYLIEWVKQRPGQGLEWIGVINPGSDGSTYNEKFKGKATLTADKSSNTAYMQLSSLTSEDSAVYFCARGDYGRSYGMDYWGQGTSVTVSS
VL: DIVMTQSQKFMSTTVGDRVSITCKASQNVGTAVVWYQQKPGQSPKLLIYSASNRYTGVPDRFTGSGSGTDFTLTISNMQSEDLADYFCQQYSSYMYTFGGGTKLEIKR
In the case of B3, in test [1], a half-maximal response (EC50) required 2.56 nM and the “Top Inhibition (%)” value amounted to 86.9%. This molecule also came in with an EC50 in test [2] of 1.14 nM. The binding result in test [3] was “no binding”.

B4: LK-RB1-13 (antibody, human IgG4 S228P, kappa, V domains shown)
VH: QVTLKESGPGIVKPSQTLSLTCSFSGFSLSISGTGIGWIRQPSGKGLEWLAHIWWDDDKYYNPSLKSQVTISKDTSTKQVFLNITSVDTADTATYYCTRTELGRGDFWGQGTSVTVSS
VL: DILLTQSPAILSVSPGDRVSFSCRASQSTGTNIHWYQRRTNGSPRLLIKYGSESISGIPSRFSGSGTGTDFTLTINSVESEDIADYYCQQSYSWPYTFGGGTKLEIKR
As for B4, in test [1], the midpoint of the response, the EC50, lay at 0.42 nM and the “Top Inhibition (%)” value amounted to 81.8%. Moreover, the EC50 in test [2] stood at 0.2 nM. In addition, the binding result in test [3] is recorded as “no binding”.

B5: LK-RB1-15 (antibody, human IgG4 S228P, kappa, V domains shown)
VH: QVTLKESGPGIVKPSQTLSLTCSFSGFSLSISGTGIGWIRQPSGKGLEWLAHIWWDDDKYYNPSLKSQVTISKDTSTKQVFLNITSVDTADTATYYCTRTELGRGDFWGQGTSVTVSS
VL: DILLTQSPAILSVSPGDRVSFSCRASQSIGTNIHWYQRRTNGSPRLLIKYGSESISGIPSRFSGSGTGTDFTLTINSVESEDIADYYCQQSYSWPYTFGGGTKLEIKR
On to B5, for which, in test [1], the EC50 is 0.79 nM and the “Top Inhibition (%)” value was 67.3%. The molecule also had a 50% effective concentration (EC50) in test [2] of 0.64 nM. Also, the binding result in test [3] was “no binding”.

B6: LK-RB1-1 (antibody, human IgG4 S228P, kappa, V domains shown)
VH: QIQLVQSGPELKKPGETVKISCKASGYSFTNFGMSWVKQAPGKALKWMGWINTYSGVPTYADDFKGRFAFSLETSANTAYLQINNLKNEDSATYFCARRRRTFDGYLCFDYWGQGATLTVSS
VL: QLVLTQSSSASFSLGASAKLTCTLSSQHSTYSIDWYQQQPLKPPKYVMELKTDGSHRTGDGIPDRFSGSSSGADRYLSISNIQPEDEAIYICGVGDTIKEQFVYVFGGGTKVTVLR
Turning to B6, the EC50 in test [1] is 0.32 nM; in test [2], 0.17 nM. Further, in test [1], the “Top Inhibition (%)” value was found to be 78%. In addition, the binding result in test [3] is given as “no binding”.

B7: LK-RB1-4 (antibody, human IgG4 S228P, kappa, V domains shown)
VH: QVQLQQPGAELVKPGASVKLPCKTSGYTFTSYWMHWVKQRPGRGLEWIGRIDPHYSGTKYNEKFKNKATMTVDTPSSTAYMQLSSLTSEDSAVYYCARFDGDPYYFDYWGPGTTLTVSS
VL: DIVMTQSQKFMSTSVGDRVSVTCKASQNVGTNVAWYKQKAGQSPKAVIYSASYRYSGVPDRFTGSGSGTDFTLSISNVQSEDLAEYFCQQYNNNPFTFGSGTKLEIKR
For the molecule B7, in test [1], the EC50 was determined as 1.74 nM and the “Top Inhibition (%)” value was 85.9%. The concentration giving a half-maximal response (EC50) in test [2] amounted to 1 nM. Moreover, the binding result in test [3] is on record as “no binding”.

B8: LK-RB1-3 (antibody, human IgG4 S228P, kappa, V domains shown)
VH: QVQLQQPGAELVKPGTSVNLSCKASGYTFTSYWIHWVKQRPGRGLEWIGRINPYSSGTRYNEKFKNKATLTVDKPSSTAYMQLTSLTSEDSAVYYCARFDGAPDYFDFWGQGTTLTVSS
VL: DIVMTQSQKFMPTSVGDRVNVTCKASQNVGINVAWYQQKLGQSPKALIYSASYRYSGVPDRFTGSGSGTDFTLTINSVQSEDLADYFCQQYNNYPFTFGSGTKLEIKR
For B8, the EC50 in test [1] was determined as 2.08 nM; in test [2], 1.14 nM. For the same molecule, the “Top Inhibition (%)” value in test [1] is 87%. Further, the binding result in test [3] is “no binding”.

B9: LK-RB1-16 (antibody, human IgG4 S228P, kappa, V domains shown)
VH: QVQLKESGPGLVAPSQSLSITCTVSGFSLISNAISWVRQPPGKGLEWLGVIWGDGNTIYHSALRSRLTISKDNSKSQVFLKLNSLQIDDTATYYCAKANWDGYYFDYWGQGTTLTVSS
VL: DIQMNQSPSSLSASLGDTITITCHASQSVDFWLNWYQQKPGNIPKLLISKASNLHTGVPSRFSGSGSGTTFTLTISSLQPEDIATYYCQQGQSYPLTFGSGTKLEIKR
On to B9, for which, in test [1], the response was half-maximal at 0.53 nM (EC50) and the “Top Inhibition (%)” value worked out at 98.2%. The molecule also returned an EC50 in test [2] of 0.81 nM. In addition, the binding result in test [3] is reported as “no binding”.

B10: LK-RB1-10 (antibody, human IgG4 S228P, kappa, V domains shown)
VH: QVTLKESGPGILKPSQTLSLTCSFSGFSLSTSGTGVGWIRQPSGKGLEWLAHIWWNDDKYYKPSLKRQLTISKDTSRNQVFLKITSVDTADTATYYCTRTELGRGDYWGQGTSVTVSS
VL: DILLTQSPAILSVSPGERVSFSCRASQSIGTNIHWYQQRMNGSPRLIIKYASELISGIPSRFSGSGSGTDFTLSINSVESEDIADYYCQQSYGWPYTFGGGTKLETKR
Take B10: in test [1], a half-maximal effect (EC50) was put at 1.04 nM and the “Top Inhibition (%)” value was 83.1%. Moreover, in test [2], the EC50 came to 0.7 nM. Further, the binding result in test [3] is recorded as “no binding”.

B11: LK-RB1-14 (antibody, human IgG4 S228P, kappa, V domains shown)
VH: QVTLKESGPGILKPSQTLSLTCSFSGFSLSTSGMGVGWIRQPSGKGLEWLAHIWWDDDKYYNPSLKSQLTISKDTSRNQVFLKITSVDTADTATYYCARTELGRGDSWGQGTSVTVSS
VL: DILLTQSPAILSVSPGERVSFSCRASQSIGTSIHWYQQRTNGSPRLLIKYASESISGIPSRFSGSGSGTDFTLSINSVESEDIADYYCQQSYSWPYTFGGGTKLEIKR
For B11, the concentration giving a half-maximal response (EC50) in test [1] came out at 0.65 nM; in test [2], 0.47 nM. For the same molecule, the “Top Inhibition (%)” value in test [1] turned out to be 81.2%. In addition, the binding result in test [3] was “no binding”.

B12: LK-RB1-11 (antibody, human IgG4 S228P, kappa, V domains shown)
VH: QVTLKESGPGILQPSQTLSLTCSFSGFSLKTSGMSVGWIRQPSGKGLEWLAHIWWNDDKYYNPVLKGRLTISKDTSNNLVFLKIASVVSTDTATYYCVRYGNSHGYWYFDVWGTGTTVTVSS
VL: NIVLTQSPASLAVSLGQRATISCRASESVDSYGNNFIHWYQQKPGQPPKVLIYYASNLEAGVPARFSGSGSRTDFTLTIDPVEAEDAATYYCQQNNEDPYTFGGGTKLEIER
Consider B12, for which, in test [1], the concentration for a half-maximal effect (EC50) turned out to be 1.34 nM and the “Top Inhibition (%)” value turned out to be 78.9%. The same molecule had an EC50 in test [2] of 0.61 nM. Further, the binding result in test [3] was “no binding”.

B13: LK-RB1-5 (antibody, human IgG4 S228P, kappa, V domains shown)
VH: QVQLQQPGAELVKPGASVKLSCKASGYTFTDFWIHWVKQRPGQGLEWIGMIHPNSGSTNFNEKFRAKATLTVDKSSSTAYMRLSSLTSEDSAVYYCARSGDGYSNPMDYWGQGTSVTVSS
VL: QIVLSQSPAILSASPGEKVTLTCRASSSVSYMHWYQQKPGSSPKPWIYATSNLASGVPVRFSGSGSGTSYSLTISRMQTEDAATYYCQQWRRSPYTFGGGTKLEIKR
Regarding B13, the results for the EC50 in test [1] and in test [2] were 1.97 nM and 1.4 nM, respectively. Besides, in test [1], the “Top Inhibition (%)” value is 23%. Also, in test [3], the binding result is listed as “no binding”.

B14: LK-RB1-6 (antibody, human IgG4 S228P, kappa, V domains shown)
VH: QIQLVQSGPELKKPGETVKISCKASGYTFTTYGMSWVKQAPGKDLKWMGWINTFSGVPACADDFQGRFDFSAEPSDSTAHLQINNLKNEDTATYFCARRSYYGSRGWYFDVWGTGTTVTVSS
VL: DIVMTQSHKFMSTSVGDRVSITCTASEDVNTAVAWYQQKPGQSPKLLIYWASTRHTGVPDRFTGSGSGTDYTLTISSVQTEDLALYYCQQHYNTPYTFGGGTKLEIKR
As to B14, the EC50 was 0.54 nM in test [1] and 0.22 nM in test [2]. In test [1], the “Top Inhibition (%)” value turned out to be 69.7%. In addition, the binding result in test [3] is recorded as “no binding”.

B15: LK-RB1-12 (antibody, human IgG4 S228P, kappa, V domains shown)
VH: QVQLQQSGTELVRPGSSVMISCKASGYAFSTYWMDWVKQRPGQGLEWIGQIYPGDGATNYNGKFKGKATLTADKSSITAYMHLSSLTSEDSAVYFCLRSRDYDGWFFDVWGAGTTVTVSS
VL: DIVMTQSHKFMSTSIGDRVSITCKASQDVSSAVAWYQQKPGQSPKLLIYWASTRHTGVPDRFTGSGSGTDYTLTFSSVQAEDLALYYCQQHYSTPWTFGGGTKLEIKR
As for B15, in test [1], the EC50 is 0.37 nM and the “Top Inhibition (%)” value came to 79.2%. Also, the EC50 in test [2] was found to be 0.17 nM. Further, the binding result in test [3] is listed as “no binding”.

B16: LK-RB1-7 (antibody, human IgG4 S228P, kappa, V domains shown)
VH: QIQLVQSGPELKKPGETVKISCKASGYTFTTYGMSWVKQAPGKDLKWMGWINTFSGVPACADDFQGRFDFSAEPSDSTAHLQINNLKNEDTATYFCARRSYYGSRGWYFDVWGTGTTVTVSS
VL: DVQMIQSPSSLSASLGDIVTMTCQASQDTTINLNWFQQKPGKVPKLLIYGASNLEDGVPSRFSGSSFGTDFTLTISSLEDEDMATYFCLQHTYLPRTFGGGTKLEIRR
With B16, in test [1], the EC50 worked out at 0.54 nM and the “Top Inhibition (%)” value was 69.7%. The same molecule displayed an EC50 in test [2] of 0.22 nM. Moreover, the binding result in test [3] is on record as “no binding”.
